Test results from patent US20180155451A1 (published 2018).

B1: GpH7-A5/GpH7-B3 variant T335_15Y/GpL16-k0 (antibody, human IgG1, kappa)
heavy 1: not shown
heavy 2: not shown
light: DIVMTQSPLSLPVTPGEPASISCQASESLVHSNRNTYLHWYLQKPGQSPQLLIYKVSNRFSGVPDRFSGSGSGTDFTLKISRVEAEDVGVYYCSQNTHVPPTFGQGTKVEIERTVAAPSVFIFPPSDEQLKSGTASVVCLLNNFYPREAKVQWKVDNALQSGNSQESVTEQDSKDSTYSLSSTLTLSKADYEKHKVYACEVTHQGLSSPVTKSFNRGEC
notes: heterodimerized; mutation in one H chain only; also called He Ab
B2: GpH7-A5/GpH7-B3 variant G236_09D/GpL16-k0 (antibody, human IgG1, kappa)
heavy 1: not shown
heavy 2: not shown
light: B1 light
notes: as for B1
B3: GpH7-A5/GpH7-B3 variant G236_10E/GpL16-k0 (antibody, human IgG1, kappa)
heavy 1: not shown
heavy 2: not shown
light: B1 light
notes: as for B1
B4: GpH7-A5/GpH7-B3 variant H268_09D/GpL16-k0 (antibody, human IgG1, kappa)
heavy 1: not shown
heavy 2: not shown
light: B1 light
notes: as for B1
B5: GpH7-A5/GpH7-B3 variant H268_10E/GpL16-k0 (antibody, human IgG1, kappa)
heavy 1: not shown
heavy 2: not shown
light: B1 light
notes: as for B1
B6: GpH7-A5/GpH7-B3 variant H268_13S/GpL16-k0 (antibody, human IgG1, kappa)
heavy 1: not shown
heavy 2: not shown
light: B1 light
notes: as for B1
B7: GpH7-A5/GpH7-B3 variant H268_18N/GpL16-k0 (antibody, human IgG1, kappa)
heavy 1: not shown
heavy 2: not shown
light: B1 light
notes: as for B1
B8: GpH7-A5/GpH7-B3 variant I332_04F/GpL16-k0 (antibody, human IgG1, kappa)
heavy 1: not shown
heavy 2: not shown
light: B1 light
notes: as for B1
B9: GpH7-A5/GpH7-B3 variant I332_09D/GpL16-k0 (antibody, human IgG1, kappa)
heavy 1: not shown
heavy 2: not shown
light: B1 light
notes: as for B1
B10: GpH7-A5/GpH7-B3 variant I332_10E/GpL16-k0 (antibody, human IgG1, kappa)
heavy 1: not shown
heavy 2: not shown
light: B1 light
notes: as for B1
B11: GpH7-A5/GpH7-B3 variant I332_15Y/GpL16-k0 (antibody, human IgG1, kappa)
heavy 1: not shown
heavy 2: not shown
light: B1 light
notes: as for B1
B12: GpH7-A5/GpH7-B3 variant K326_06M/GpL16-k0 (antibody, human IgG1, kappa)
heavy 1: not shown
heavy 2: not shown
light: B1 light
notes: as for B1
B13: GpH7-A5/GpH7-B3 variant K326_09D/GpL16-k0 (antibody, human IgG1, kappa)
heavy 1: not shown
heavy 2: not shown
light: B1 light
notes: as for B1
B14: GpH7-B3 variant K326_16H/GpL16-k0 (antibody, human IgG1, kappa)
heavy: not shown
light: B1 light
notes: homodimerized; mutation in both H chains; also called Ho Ab
B15: GpH7-B3 variant K326_19Q/GpL16-k0 (antibody, human IgG1, kappa)
heavy: not shown
light: B1 light
notes: as for B14
B16: GpH7-B3 variant K334_03V/GpL16-k0 (antibody, human IgG1, kappa)
heavy: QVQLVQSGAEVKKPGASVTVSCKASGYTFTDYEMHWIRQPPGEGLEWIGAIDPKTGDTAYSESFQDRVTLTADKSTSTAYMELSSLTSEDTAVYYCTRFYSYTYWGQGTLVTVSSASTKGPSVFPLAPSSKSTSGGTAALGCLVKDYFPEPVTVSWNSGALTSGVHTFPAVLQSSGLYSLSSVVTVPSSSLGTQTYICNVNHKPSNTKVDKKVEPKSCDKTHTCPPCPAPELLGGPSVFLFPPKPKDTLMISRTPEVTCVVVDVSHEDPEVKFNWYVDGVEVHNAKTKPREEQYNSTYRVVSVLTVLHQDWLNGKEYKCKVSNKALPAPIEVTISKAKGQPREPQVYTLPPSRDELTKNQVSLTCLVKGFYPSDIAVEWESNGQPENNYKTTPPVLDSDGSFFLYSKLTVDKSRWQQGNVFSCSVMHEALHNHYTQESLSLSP
light: B1 light
notes: as for B14
B17: GpH7-B3 variant K334_07I/GpL16-k0 (antibody, human IgG1, kappa)
heavy: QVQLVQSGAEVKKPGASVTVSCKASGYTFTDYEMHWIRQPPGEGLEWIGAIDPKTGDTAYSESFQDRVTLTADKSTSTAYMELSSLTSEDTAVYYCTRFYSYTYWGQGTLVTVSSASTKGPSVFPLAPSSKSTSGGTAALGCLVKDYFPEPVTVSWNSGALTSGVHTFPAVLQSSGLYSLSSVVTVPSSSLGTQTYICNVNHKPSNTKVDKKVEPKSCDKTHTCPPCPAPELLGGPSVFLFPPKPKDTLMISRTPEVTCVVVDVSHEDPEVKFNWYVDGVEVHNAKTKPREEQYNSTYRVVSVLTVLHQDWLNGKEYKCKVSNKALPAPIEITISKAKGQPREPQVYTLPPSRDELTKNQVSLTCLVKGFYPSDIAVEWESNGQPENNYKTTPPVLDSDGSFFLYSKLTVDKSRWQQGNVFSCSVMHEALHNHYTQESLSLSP
light: B1 light
notes: as for B14
B18: GpH7-B3 variant K334_14T/GpL16-k0 (antibody, human IgG1, kappa)
heavy: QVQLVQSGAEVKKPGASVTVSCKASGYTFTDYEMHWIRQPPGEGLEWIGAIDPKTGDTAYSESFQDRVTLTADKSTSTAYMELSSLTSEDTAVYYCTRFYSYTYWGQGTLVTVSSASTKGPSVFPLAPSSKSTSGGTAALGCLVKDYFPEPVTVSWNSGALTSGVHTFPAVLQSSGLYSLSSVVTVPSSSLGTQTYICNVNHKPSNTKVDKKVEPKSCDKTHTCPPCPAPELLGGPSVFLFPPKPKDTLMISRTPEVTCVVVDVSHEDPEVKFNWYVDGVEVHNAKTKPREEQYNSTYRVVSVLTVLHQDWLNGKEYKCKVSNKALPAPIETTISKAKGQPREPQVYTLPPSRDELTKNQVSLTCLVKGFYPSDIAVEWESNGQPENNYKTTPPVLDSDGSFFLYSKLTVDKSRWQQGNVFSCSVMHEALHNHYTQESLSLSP
light: B1 light
notes: as for B14
B19: GpH7-B3 variant K334_15Y/GpL16-k0 (antibody, human IgG1, kappa)
heavy: not shown
light: B1 light
notes: as for B14
B20: GpH7-B3 variant K334_16H/GpL16-k0 (antibody, human IgG1, kappa)
heavy: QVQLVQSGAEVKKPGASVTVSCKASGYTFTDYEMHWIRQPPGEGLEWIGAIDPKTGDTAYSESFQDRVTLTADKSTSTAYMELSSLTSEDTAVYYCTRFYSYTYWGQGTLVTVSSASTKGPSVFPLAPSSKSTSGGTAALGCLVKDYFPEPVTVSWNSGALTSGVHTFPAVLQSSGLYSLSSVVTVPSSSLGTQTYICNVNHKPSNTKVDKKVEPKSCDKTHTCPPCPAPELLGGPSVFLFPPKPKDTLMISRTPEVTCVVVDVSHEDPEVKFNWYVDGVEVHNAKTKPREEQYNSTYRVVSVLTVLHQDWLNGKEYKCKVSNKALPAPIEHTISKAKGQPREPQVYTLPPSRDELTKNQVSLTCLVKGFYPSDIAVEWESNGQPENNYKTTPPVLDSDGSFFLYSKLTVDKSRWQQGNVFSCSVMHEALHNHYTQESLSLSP
light: B1 light
notes: as for B14
B21: GpH7-B3 variant K334_18N/GpL16-k0 (antibody, human IgG1, kappa)
heavy: not shown
light: B1 light
notes: as for B14
B22: GpH7-B3 variant L328_03V/GpL16-k0 (antibody, human IgG1, kappa)
heavy: not shown
light: B1 light
notes: as for B14
B23: GpH7-B3 variant L328_04F/GpL16-k0 (antibody, human IgG1, kappa)
heavy: not shown
light: B1 light
notes: as for B14
B24: GpH7-B3 variant L328_06M/GpL16-k0 (antibody, human IgG1, kappa)
heavy: not shown
light: B1 light
notes: as for B14
B25: GpH7-B3 variant L328_07I/GpL16-k0 (antibody, human IgG1, kappa)
heavy: not shown
light: B1 light
notes: as for B14
B26: GpH7-B3 variant L328_15Y/GpL16-k0 (antibody, human IgG1, kappa)
heavy: not shown
light: B1 light
notes: as for B14
B27: GpH7-B3 variant P238_08L/GpL16-k0 (antibody, human IgG1, kappa)
heavy: not shown
light: B1 light
notes: as for B14
B28: GpH7-B3 variant S239_01G/GpL16-k0 (antibody, human IgG1, kappa)
heavy: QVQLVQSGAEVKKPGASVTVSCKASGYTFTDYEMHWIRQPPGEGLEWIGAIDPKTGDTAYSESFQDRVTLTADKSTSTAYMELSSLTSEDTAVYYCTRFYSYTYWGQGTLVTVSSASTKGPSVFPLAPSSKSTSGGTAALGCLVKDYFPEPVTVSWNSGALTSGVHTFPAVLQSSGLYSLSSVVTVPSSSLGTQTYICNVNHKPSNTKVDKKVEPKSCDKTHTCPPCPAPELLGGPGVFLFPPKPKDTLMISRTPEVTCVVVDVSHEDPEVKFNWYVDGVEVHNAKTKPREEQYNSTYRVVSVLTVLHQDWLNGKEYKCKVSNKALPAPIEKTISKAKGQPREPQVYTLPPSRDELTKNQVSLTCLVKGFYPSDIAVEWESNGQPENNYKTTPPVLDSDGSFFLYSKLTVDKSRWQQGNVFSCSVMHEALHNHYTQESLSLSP
light: B1 light
notes: as for B14
B29: GpH7-B3 variant S239_09D/GpL16-k0 (antibody, human IgG1, kappa)
heavy: not shown
light: B1 light
notes: homodimerized; mutation in both H chains; also called Ho Ab; GpH7-B3-06-09D/GpL16-k0
B30: GpH7-B3 variant S267_01G/GpL16-k0 (antibody, human IgG1, kappa)
heavy: not shown
light: B1 light
notes: as for B14
B31: GpH7-B3 variant S267_02A/GpL16-k0 (antibody, human IgG1, kappa)
heavy: not shown
light: B1 light
notes: as for B14
B32: GpH7-B3 variant S267_07I/GpL16-k0 (antibody, human IgG1, kappa)
heavy: not shown
light: B1 light
notes: as for B14
B33: GpH7-B3 variant S337_14T/GpL16-k0 (antibody, human IgG1, kappa)
heavy: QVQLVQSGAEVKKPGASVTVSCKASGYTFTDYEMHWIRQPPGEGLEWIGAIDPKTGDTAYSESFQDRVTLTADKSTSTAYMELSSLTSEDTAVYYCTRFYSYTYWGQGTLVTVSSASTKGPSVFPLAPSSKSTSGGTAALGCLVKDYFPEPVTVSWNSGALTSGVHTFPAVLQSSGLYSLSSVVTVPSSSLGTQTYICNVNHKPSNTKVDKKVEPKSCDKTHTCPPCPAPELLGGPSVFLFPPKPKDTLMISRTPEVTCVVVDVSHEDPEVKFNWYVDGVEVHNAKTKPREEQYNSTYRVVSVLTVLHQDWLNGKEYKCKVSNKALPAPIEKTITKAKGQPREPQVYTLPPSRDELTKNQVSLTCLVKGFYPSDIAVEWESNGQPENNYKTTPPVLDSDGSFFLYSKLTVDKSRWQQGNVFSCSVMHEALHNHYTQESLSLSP
light: B1 light
notes: as for B14
B34: GpH7-B3 variant T335_04F/GpL16-k0 (antibody, human IgG1, kappa)
heavy: not shown
light: B1 light
notes: as for B14
B35: GpH7-B3 variant T335_06M/GpL16-k0 (antibody, human IgG1, kappa)
heavy: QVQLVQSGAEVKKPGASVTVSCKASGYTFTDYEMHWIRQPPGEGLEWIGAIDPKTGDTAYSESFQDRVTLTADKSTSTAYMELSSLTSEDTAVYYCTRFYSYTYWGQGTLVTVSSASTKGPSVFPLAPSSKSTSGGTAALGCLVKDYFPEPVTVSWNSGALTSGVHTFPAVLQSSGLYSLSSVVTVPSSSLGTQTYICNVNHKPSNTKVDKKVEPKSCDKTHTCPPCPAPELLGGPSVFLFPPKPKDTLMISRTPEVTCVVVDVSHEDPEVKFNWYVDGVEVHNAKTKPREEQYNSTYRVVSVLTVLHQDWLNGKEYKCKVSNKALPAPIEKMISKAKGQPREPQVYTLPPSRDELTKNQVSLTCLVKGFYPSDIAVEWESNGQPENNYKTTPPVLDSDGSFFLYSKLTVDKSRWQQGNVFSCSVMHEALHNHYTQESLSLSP
light: B1 light
notes: as for B14
B36: GpH7-B3 variant T335_08L/GpL16-k0 (antibody, human IgG1, kappa)
heavy: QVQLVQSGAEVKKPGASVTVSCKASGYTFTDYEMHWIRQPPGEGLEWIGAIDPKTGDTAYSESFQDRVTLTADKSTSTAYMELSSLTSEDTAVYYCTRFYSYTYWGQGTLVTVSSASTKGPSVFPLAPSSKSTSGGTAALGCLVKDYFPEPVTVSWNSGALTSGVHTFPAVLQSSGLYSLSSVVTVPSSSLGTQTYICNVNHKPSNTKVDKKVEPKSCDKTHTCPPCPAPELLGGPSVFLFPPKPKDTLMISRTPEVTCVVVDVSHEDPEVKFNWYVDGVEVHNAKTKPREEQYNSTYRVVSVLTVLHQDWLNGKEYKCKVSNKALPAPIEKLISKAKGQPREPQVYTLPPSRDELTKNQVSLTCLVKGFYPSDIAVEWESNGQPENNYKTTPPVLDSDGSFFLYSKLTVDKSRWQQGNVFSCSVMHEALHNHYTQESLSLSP
light: B1 light
notes: as for B14
B37: GpH7-B3 variant T335_09D/GpL16-k0 (antibody, human IgG1, kappa)
heavy: not shown
light: B1 light
notes: as for B14
B38: GpH7-B3 variant T335_16H/GpL16-k0 (antibody, human IgG1, kappa)
heavy: not shown
light: B1 light
notes: as for B14
B39: GpH7-B3 variant T335_18N/GpL16-k0 (antibody, human IgG1, kappa)
heavy: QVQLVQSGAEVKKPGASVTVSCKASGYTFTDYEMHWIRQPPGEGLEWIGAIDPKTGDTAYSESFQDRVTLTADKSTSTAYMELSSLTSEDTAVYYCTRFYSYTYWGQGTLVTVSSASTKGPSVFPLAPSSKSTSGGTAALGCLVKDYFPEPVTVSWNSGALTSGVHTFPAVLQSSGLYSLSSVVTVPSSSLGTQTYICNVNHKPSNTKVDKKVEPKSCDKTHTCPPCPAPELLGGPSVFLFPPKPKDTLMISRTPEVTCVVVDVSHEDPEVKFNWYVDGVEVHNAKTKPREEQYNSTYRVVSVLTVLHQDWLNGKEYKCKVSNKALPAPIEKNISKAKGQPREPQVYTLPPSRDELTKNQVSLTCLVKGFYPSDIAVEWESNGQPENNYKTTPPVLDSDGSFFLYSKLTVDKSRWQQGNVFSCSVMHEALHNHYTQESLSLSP
light: B1 light
notes: as for B14
B40: GpH7-B3 variant T335_19Q/GpL16-k0 (antibody, human IgG1, kappa)
heavy: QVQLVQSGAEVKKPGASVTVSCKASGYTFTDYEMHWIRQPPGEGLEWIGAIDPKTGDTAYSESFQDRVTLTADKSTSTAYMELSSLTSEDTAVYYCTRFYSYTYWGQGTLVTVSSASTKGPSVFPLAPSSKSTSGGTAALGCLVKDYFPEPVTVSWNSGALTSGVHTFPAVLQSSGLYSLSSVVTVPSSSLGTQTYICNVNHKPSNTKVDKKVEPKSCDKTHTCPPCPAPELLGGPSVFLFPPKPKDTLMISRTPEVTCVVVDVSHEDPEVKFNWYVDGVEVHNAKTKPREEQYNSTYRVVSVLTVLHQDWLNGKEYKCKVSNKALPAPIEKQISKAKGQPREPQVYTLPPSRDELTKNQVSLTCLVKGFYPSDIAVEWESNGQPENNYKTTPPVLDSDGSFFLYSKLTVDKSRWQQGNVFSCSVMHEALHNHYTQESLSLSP
light: B1 light
notes: as for B14
B41: GpH7-B3 variant T335_20W/GpL16-k0 (antibody, human IgG1, kappa)
heavy: not shown
light: B1 light
notes: as for B14
B42: GpH7-B3 variant V266_06M/GpL16-k0 (antibody, human IgG1, kappa)
heavy: not shown
light: B1 light
notes: as for B14
B43: GpH7-B3 variant Y296_20W/GpL16-k0 (antibody, human IgG1, kappa)
heavy: not shown
light: B1 light
notes: as for B14
B44: GpH7-B3 variant Y300_04F/GpL16-k0 (antibody, human IgG1, kappa)
heavy: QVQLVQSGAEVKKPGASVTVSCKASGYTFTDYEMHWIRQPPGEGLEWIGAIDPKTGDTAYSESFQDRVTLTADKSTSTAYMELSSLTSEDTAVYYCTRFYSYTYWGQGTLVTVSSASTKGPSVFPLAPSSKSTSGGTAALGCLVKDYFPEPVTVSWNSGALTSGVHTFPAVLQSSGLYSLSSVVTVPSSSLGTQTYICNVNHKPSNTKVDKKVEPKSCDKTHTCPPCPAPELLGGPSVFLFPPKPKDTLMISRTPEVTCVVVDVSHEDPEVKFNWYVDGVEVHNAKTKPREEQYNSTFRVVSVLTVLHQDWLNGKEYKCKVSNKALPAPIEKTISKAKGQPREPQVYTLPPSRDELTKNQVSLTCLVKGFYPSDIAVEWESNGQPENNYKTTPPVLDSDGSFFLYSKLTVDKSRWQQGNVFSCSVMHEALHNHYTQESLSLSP
light: B1 light
notes: as for B14

These binders were tested against T1, FcγRIIa R (human, UniProt P12318 34-217) (assay: SPR (Biacore), antibody captured via antigen peptide, FcγRIIa R as analyte; heterodimerized antibody).
T1 construct: extracellular domain; Soluble extracellular domain with C-terminal His tag, expressed in FreeStyle293 cells; also called FcgRIIa R; FcγRIIa type R; not shown: His tag attached to the C terminus
T1 sequence (looked up): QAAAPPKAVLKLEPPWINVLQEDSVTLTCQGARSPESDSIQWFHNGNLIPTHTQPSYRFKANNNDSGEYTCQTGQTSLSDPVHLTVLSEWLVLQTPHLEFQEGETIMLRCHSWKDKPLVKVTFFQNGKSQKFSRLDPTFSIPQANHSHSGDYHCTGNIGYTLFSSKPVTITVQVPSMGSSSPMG
Protocol: (§1) Analysis of interaction between objective antibody and the FcγR was carried out using Biacore T100 (GE Healthcare). HBS-EP+ (GE Healthcare) was used as the running buffer, and the measurement temperature was set to 25° C. Chips produced by immobilizing the antigen peptide by the amine coupling method to a Series S Sencor Chip CM5 (GE Healthcare), or alternatively, chips produced by allowing preliminarily biotinylated antigen peptides to interact with and immobilize onto a Series S Sensor Chip SA (certified) (GE Healthcare) were used. Antibodies of interest were captured onto an antigen peptide-immobilized chip, and allowed to interact to each FcγR diluted with running buffer. To regenerate and repeatedly use the chip, the antibodies captured on the chip were washed off by reacting 10 mM glycine-HCl, pH 1.5.
For B1, the He/Con_2aR was 111 % of control (GpH7-A5/GpH7-B3/GpL16-k0 = 100).
In the case of B2, the He/Con_2aR is reported as 106 % of control (GpH7-A5/GpH7-B3/GpL16-k0 = 100).
For B3, the He/Con_2aR was 125 % of control (GpH7-A5/GpH7-B3/GpL16-k0 = 100).
B4 was tested, and the He/Con_2aR was 149 % of control (GpH7-A5/GpH7-B3/GpL16-k0 = 100).
In the case of B5, the He/Con_2aR is reported as 148 % of control (GpH7-A5/GpH7-B3/GpL16-k0 = 100).
In the case of B6, the He/Con_2aR is reported as 127 % of control (GpH7-A5/GpH7-B3/GpL16-k0 = 100).
For B7, the He/Con_2aR was 128 % of control (GpH7-A5/GpH7-B3/GpL16-k0 = 100).
For B8, the He/Con_2aR was 105 % of control (GpH7-A5/GpH7-B3/GpL16-k0 = 100).
B9 was tested, and the He/Con_2aR was 119 % of control (GpH7-A5/GpH7-B3/GpL16-k0 = 100).
B10 was tested, and the He/Con_2aR was 114 % of control (GpH7-A5/GpH7-B3/GpL16-k0 = 100).
In the case of B11, the He/Con_2aR is reported as 110 % of control (GpH7-A5/GpH7-B3/GpL16-k0 = 100).
With B12 the He/Con_2aR was 138 % of control (GpH7-A5/GpH7-B3/GpL16-k0 = 100).
For B13, the He/Con_2aR was 148 % of control (GpH7-A5/GpH7-B3/GpL16-k0 = 100).

Each binder was assayed against T1, FcγRIIa R (assay: SPR (Biacore), antibody captured via antigen peptide, FcγRIIa R as analyte; homodimerized antibody).
Protocol: as §1
B14 was tested, and the Ho/Con_2aR was 123 % of control (GpH7-B3/GpL16-k0 = 100).
In the case of B15, the Ho/Con_2aR is reported as 137 % of control (GpH7-B3/GpL16-k0 = 100).
B16 was tested, and the Ho/Con_2aR was 123 % of control (GpH7-B3/GpL16-k0 = 100).
For B17, the Ho/Con_2aR was 121 % of control (GpH7-B3/GpL16-k0 = 100).
In the case of B18, the Ho/Con_2aR is reported as 117 % of control (GpH7-B3/GpL16-k0 = 100).
B19 was tested, and the Ho/Con_2aR was 112 % of control (GpH7-B3/GpL16-k0 = 100).
For B20, the Ho/Con_2aR was 111 % of control (GpH7-B3/GpL16-k0 = 100).
B21 was tested, and the Ho/Con_2aR was 113 % of control (GpH7-B3/GpL16-k0 = 100).
With B22 the Ho/Con_2aR was 116 % of control (GpH7-B3/GpL16-k0 = 100).
With B23 the Ho/Con_2aR was 145 % of control (GpH7-B3/GpL16-k0 = 100).
With B24 the Ho/Con_2aR was 124 % of control (GpH7-B3/GpL16-k0 = 100).
For B25, the Ho/Con_2aR was 140 % of control (GpH7-B3/GpL16-k0 = 100).
For B26, the Ho/Con_2aR was 157 % of control (GpH7-B3/GpL16-k0 = 100).
For B27, the Ho/Con_2aR was 148 % of control (GpH7-B3/GpL16-k0 = 100).
B28 was tested, and the Ho/Con_2aR was 132 % of control (GpH7-B3/GpL16-k0 = 100).
B29 was tested, and the Ho/Con_2aR was 142 % of control (GpH7-B3/GpL16-k0 = 100).
For B30, the Ho/Con_2aR was 116 % of control (GpH7-B3/GpL16-k0 = 100).
In the case of B31, the Ho/Con_2aR is reported as 160 % of control (GpH7-B3/GpL16-k0 = 100).
With B32 the Ho/Con_2aR was 113 % of control (GpH7-B3/GpL16-k0 = 100).
With B33 the Ho/Con_2aR was 110 % of control (GpH7-B3/GpL16-k0 = 100).
In the case of B34, the Ho/Con_2aR is reported as 108 % of control (GpH7-B3/GpL16-k0 = 100).
With B35 the Ho/Con_2aR was 107 % of control (GpH7-B3/GpL16-k0 = 100).
With B36 the Ho/Con_2aR was 108 % of control (GpH7-B3/GpL16-k0 = 100).
For B37, the Ho/Con_2aR was 113 % of control (GpH7-B3/GpL16-k0 = 100).
B38 was tested, and the Ho/Con_2aR was 102 % of control (GpH7-B3/GpL16-k0 = 100).
With B39 the Ho/Con_2aR was 100 % of control (GpH7-B3/GpL16-k0 = 100).
In the case of B40, the Ho/Con_2aR is reported as 102 % of control (GpH7-B3/GpL16-k0 = 100).
For B41, the Ho/Con_2aR was 101 % of control (GpH7-B3/GpL16-k0 = 100).
For B42, the Ho/Con_2aR was 146 % of control (GpH7-B3/GpL16-k0 = 100).
B43 was tested, and the Ho/Con_2aR was 107 % of control (GpH7-B3/GpL16-k0 = 100).
B44 was tested, and the Ho/Con_2aR was 109 % of control (GpH7-B3/GpL16-k0 = 100).
